Experimental findings from the supplement of paper PMC12042874 are described below.

± gives the uncertainty stated by the source.

The nature of this series: amyloid nucleation score (Sup35N fusion, yeast selection) (log enrichment); library NNK2; higher = more nucleation; inactive = no reads after selection. The essentials: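 Yeast lacking psi expressed peptides of 20 random codons fused to Sup35N, received 100 μM copper sulfate for 24 hours, and were then grown for 7 days at 30°C on medium lacking adenine and uracil. Illumina sequencing of input and output plasmid inserts provided the reads. Nucleation scores are DiMSum log enrichments of output over input, centred on the mode of non-aggregating sequences. Any sequence with under 100 input reads was excluded.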
Consider VNGSIARYGVCFVARCHVIS, for which the amyloid nucleation score came to 0.246 ± 0.45.

On to TVSYKWSSMEVITKYKGWSR, for which the amyloid nucleation score was 0.897 ± 0.28.

The substance FYYNCGWSCNNVTWFSRQFV yielded an amyloid nucleation score of 3.04 ± 0.12.

Substance VSTWTYSHRAPRG returned an amyloid nucleation score of 1.52 ± 0.26.

Take ESASTVTVCLRRVKVSHR: the amyloid nucleation score is 5.204 ± 0.045.

The substance AIRGRLKLVDMRHVIPKLKR showed an amyloid nucleation score of 1.21 ± 0.33.

Consider QYPDSCS, for which the amyloid nucleation score is -0.381 ± 0.79.

The substance MIQHICELLG registered an amyloid nucleation score of -0.317 ± 0.32.

With HSMSYFDYAIRLDRVGDVIS, the amyloid nucleation score came to 0.339 ± 0.38.

The substance KFKLLMTSRWDTFNVADTYD yielded an amyloid nucleation score of 5.04 ± 0.042.

In turn, CYIRSVFSQWLTACLVNWFM registered an amyloid nucleation score of -1.86 ± 1.1.

VVVNYVFPLSEFMLISDAKC registered an amyloid nucleation score of 0.833 ± 0.8.

Turning to EFILHVTQIAAIMDLRLVHM, the amyloid nucleation score amounted to 4.01 ± 0.11.

DVKDDKLFNCLDVVMWVGNL: the amyloid nucleation score is -0.058 ± 0.15.

Take SVVGSYYI: the amyloid nucleation score is -0.878 ± 0.36.

In the case of DCQVSTLAYWSRVKMFQYQK, the amyloid nucleation score was found to be 3.71 ± 0.077.

AGFMHVCYGSGQHRSKVDGC registered an amyloid nucleation score of 2.93 ± 0.082.

As to CNYKYSDLVFHCLPPGRGYN, the amyloid nucleation score result was “inactive”.

LVQYMTMRCVFSNIGGMTSG returned an amyloid nucleation score of 0.263 ± 0.64.

As to FFTSSHNFCYLMGYNMIWFK, the amyloid nucleation score result is “inactive”.

Turning to LLVSSVSMTWHGKLSHTYFK, the amyloid nucleation score came out at 4.62 ± 0.059.

SLSVI returned an amyloid nucleation score of 0.264 ± 0.65.

Consider FFGLVNWVGLGVHRSMTFAK, for which the amyloid nucleation score was -0.609 ± 0.41.

RNIVDISSNVRCWLGRPAIS showed an amyloid nucleation score of 3.27 ± 0.066.

On to WLAICVARWSETYCMFVWTT, for which the amyloid nucleation score was -0.441 ± 1.1.

In the case of KSLYCVNFLCRPECANPSSS, the amyloid nucleation score came to 6.592 ± 0.029.

As to DVYSSVRVNYT, the amyloid nucleation score was -0.386 ± 0.56.

Substance STELYARMVKCCVGIADYTD yielded an amyloid nucleation score of 0.491 ± 0.66.

In turn, EALSKLFFYSWERSFHNGEG showed an amyloid nucleation score of 2.11 ± 0.11.

With INSPSYDNILMSTSSANMKR, the amyloid nucleation score entry is “inactive”.

Substance SQPSDWVYFNVGYCCVLMCL showed an amyloid nucleation score of 9.398 ± 0.027.

Consider NLVTYDLE, for which the amyloid nucleation score turned out to be 3.79 ± 0.052.

RNSLKARYWWGLSGLLKVW displayed an amyloid nucleation score of -1.01 ± 0.55.

TNSYANMSGTAGNYRSYNIA gave an amyloid nucleation score of -0.522 ± 0.63.

SMLESNFRGFFYQ came in with an amyloid nucleation score of 2.56 ± 0.15.

The substance HQRYSRLLIKKCYTSASVPC came in with an amyloid nucleation score of -0.245 ± 0.62.

With VFIVYLWWTLRSWHIRVLIS, the amyloid nucleation score was -0.52 ± 1.1.

For the substance FCFISSYVPKLYSLKSQVVI, the amyloid nucleation score was -0.988 ± 0.39.

Substance SFACVSLIFISY had an amyloid nucleation score of 5.72 ± 0.063.

SKVNVVVDNMG yielded an amyloid nucleation score of -0.125 ± 0.39.

Substance EWILTELYHWFNFFYCRDGV came in with an amyloid nucleation score of -1.2 ± 1.1.

Substance RFCWC returned an amyloid nucleation score of 7.365 ± 0.042.

CPMCTFLCCLAFY yielded an amyloid nucleation score of 8.626 ± 0.04.

Substance YHWIIIRVA gave an amyloid nucleation score of -0.601 ± 0.79.

With PCIRPLDKVCLIFFTGIFLW, the amyloid nucleation score is -1.47 ± 0.78.

CYGVFLVVSWDHGGDQIGVV yielded an amyloid nucleation score of -0.482 ± 0.48.

For KILSYASLSAGSFLVQ, the amyloid nucleation score was -0.531 ± 1.1.

Take NQGLRWLTDRDILRIVEVGM: the amyloid nucleation score is 0.027 ± 0.65.

The substance VWKINISWRPSLSLLVIRLV gave an amyloid nucleation score of -0.594 ± 0.27.

The substance GIIDV displayed an amyloid nucleation score of -0.441 ± 1.1.

For RMFSIRFMWCFCSRRKPLLG, the amyloid nucleation score entry was “inactive”.

LRYAYTFDVDLSTRQAAVSL came in with an amyloid nucleation score of -0.573 ± 0.79.

As to SVCFFVLFYIYSYCRHVMKW, the amyloid nucleation score entry is “inactive”.

In the case of VDWFLYFCSPTFCHVL, the amyloid nucleation score turned out to be 8.741 ± 0.063.

Take ACNFFPLI: the amyloid nucleation score amounted to 3.29 ± 0.065.

The substance NSTCDMLVSQVVAAVNGF yielded an amyloid nucleation score of -0.715 ± 0.49.

With NIGSWGVSRLSCLYAGLANG, the amyloid nucleation score turned out to be 0.549 ± 0.42.

FRYERTGRAMSTASVVTTTV showed an amyloid nucleation score of 1.04 ± 0.68.

As to CKWIKEIVVED, the amyloid nucleation score is -0.981 ± 1.

As to AAWIAMCRILKQPTRCGHFL, the amyloid nucleation score amounted to 6.15 ± 0.073.

For CNLSVVYLLDMAD, the amyloid nucleation score stood at 3.99 ± 0.044.

On to AYFTYDNANLFDPFTRYTIE, for which the amyloid nucleation score came out at 0.073 ± 0.55.

In turn, LATLVNCCTIVNRSNFGIMH had an amyloid nucleation score of 6.985 ± 0.061.

In turn, GSVHANKD showed an amyloid nucleation score of -0.299 ± 0.63.

ATIGSLWRNYNERLFST came in with an amyloid nucleation score of 4.06 ± 0.089.

As for TYLSVGMNLLVGSPFNYNDL, the amyloid nucleation score entry was “inactive”.

WYGFNNDTEWKNTKAFW returned an amyloid nucleation score of 1.83 ± 0.084.

On to MRKMRTMNAQWSWIIVCSFW, for which the amyloid nucleation score was found to be 0.151 ± 0.63.

IRLLCHAVENCGTQRRLWGL displayed an amyloid nucleation score of 0.329 ± 0.6.

MESRILRNIYFCLTCKPSQW returned an amyloid nucleation score of 2.24 ± 0.17.

Regarding PNALQGSRDVCTLKRLASEA, the amyloid nucleation score was 0.238 ± 0.57.

CDMSHGTFFTIFCRLTNA had an amyloid nucleation score of 4.81 ± 0.11.

In the case of YSNYTHRNSTLGFKQISRTS, the amyloid nucleation score turned out to be 0.063 ± 0.79.

IIRTTSNRPTPLRCSPNLSM had an amyloid nucleation score of -0.779 ± 0.33.

As for SLKTVAFHSEMFFCSTLVDM, the amyloid nucleation score was 0.153 ± 0.8.

Take TFGLA: the amyloid nucleation score stood at 1.06 ± 0.4.

In the case of LRVYKTNTRQDLKLDTIMVG, the amyloid nucleation score is -1.14 ± 0.34.

The substance TISYKELLFANRFRELQPAD showed an amyloid nucleation score of 0.299 ± 0.49.

QVLFVRFRRYVYQRMWACWG displayed an amyloid nucleation score of 0.405 ± 0.74.

For SCAHCCHRKVLR, the amyloid nucleation score was 0.53 ± 0.3.

The substance YSVSSMVKPMIICCNSVNC had an amyloid nucleation score of 8.344 ± 0.051.

For GHLRVFGVAKKLSTIMNLAR, the amyloid nucleation score is -0.274 ± 0.45.

The substance CNERFERLFISVTGFVMRRH yielded an amyloid nucleation score of -0.358 ± 0.39.

In turn, GHIQLRTVYGV showed an amyloid nucleation score of 1.2 ± 0.68.

In turn, CARFAN registered an amyloid nucleation score of 0.599 ± 0.64.

As for LIMLASSLWTRKGGDTST, the amyloid nucleation score is 6.292 ± 0.053.

As to SFMGLAMHRSLSSCSVRSWY, the amyloid nucleation score amounted to 0.199 ± 0.53.

TIHSSPTVGLGNIWFVTNSH registered an amyloid nucleation score of 6.87 ± 0.052.

Turning to TSGLILL, the amyloid nucleation score was -0.301 ± 0.37.

For MWTIIMGMVILPRNRNL, the amyloid nucleation score stood at 3.8 ± 0.078.

GAWFQTYWLWCEYMAFIQKL: the amyloid nucleation score came to 1.86 ± 0.17.

As for CYWWDWVLY, the amyloid nucleation score was -0.032 ± 0.45.

As for FRRRQNRAHKYGALNYSMGS, the amyloid nucleation score entry was “inactive”.

FKVRIVGPLTAGMVE showed an amyloid nucleation score of -1.01 ± 0.34.

As to HTFITVPASGRAATLCTSED, the amyloid nucleation score amounted to 1.14 ± 0.12.

On to IQSNAQESHNSNICESYNND, for which the amyloid nucleation score was -1.02 ± 0.62.

FVGTLMDPVSLMKLRW: the amyloid nucleation score came to 0.787 ± 0.31.

In turn, GEGQNEVATHLYCQLAILPV had an amyloid nucleation score of 0.28 ± 0.46.

Take NGLLSRNCIWSFGFESEVEG: the amyloid nucleation score result was “inactive”.

FYNIRPETVAKAMKGLGWST showed an amyloid nucleation score of -0.136 ± 0.37.

SNSCHNAATRGYR: the amyloid nucleation score was 0.315 ± 0.74.

CGLYWFMVFTF yielded an amyloid nucleation score of 0.147 ± 0.76.

As to DVKSYTITYSLSFHVMSVII, the amyloid nucleation score was found to be 2.72 ± 0.21.

Take SVFVGLRLGKAS: the amyloid nucleation score worked out at 0.11 ± 0.28.

Substance CFVGTQLSFKVG displayed an amyloid nucleation score of 0.173 ± 0.49.

For the substance RLGIVSSVLVYWLYNYYSVL, the amyloid nucleation score result was “inactive”.

In turn, VLRIRLQAGEGKRCE came in with an amyloid nucleation score of 4.878 ± 0.044.

In turn, GYYCDYSNTSRATRNMASKR returned an amyloid nucleation score of -0.719 ± 0.32.

In turn, ARQDYWIRWLTALSMMYGSG registered an amyloid nucleation score of -0.071 ± 0.31.

The substance LYYTCDIHTGRWWVLLVHGV registered an amyloid nucleation score of 4.28 ± 0.11.

RATKGAPN had an amyloid nucleation score of 0.858 ± 0.28.

For AVNGQGDS, the amyloid nucleation score is -0.231 ± 0.43.

The substance LSVSHMCEADLQYRTLFLSK came in with an amyloid nucleation score of -0.606 ± 0.37.

With CCAVTVAMECGGIVLVRYCF, the amyloid nucleation score was 0.453 ± 0.66.

With VTHNYKFIQLGSEK, the amyloid nucleation score amounted to 4.12 ± 0.074.

KELYTSVSQGLCRYSISSCR displayed an amyloid nucleation score of -0.786 ± 0.35.

SRCVCMFTEIPATAFPMKVR gave an amyloid nucleation score of -0.94 ± 0.64.

Substance LLICDSMHHTM came in with an amyloid nucleation score of 0.275 ± 0.48.

For IDSSGEYIVLRGYMYMRFRL, the amyloid nucleation score is -0.72 ± 0.4.

On to IRDFYILAYRWLSQSHVMAN, for which the amyloid nucleation score result is “inactive”.

YTFKYLSRMYLHYSVKGMWL gave an amyloid nucleation score of 0.325 ± 0.8.

HFNSTNPTRLLVDEEFFYFE displayed an amyloid nucleation score of -0.317 ± 0.5.

MSVSLLSDIN returned an amyloid nucleation score of -0.497 ± 1.

FNNVILSRV came in with an amyloid nucleation score of -1.5 ± 0.61.

In the case of MYYCLGILCGVSTRRGEMSC, the amyloid nucleation score came to 1.17 ± 0.41.

The substance NPINRYCVAHEKLFRNVRSV came in with an amyloid nucleation score of 1.87 ± 0.29.

As to FIPEERDIWGYAPGNCIFFR, the amyloid nucleation score was -1.77 ± 0.54.

CWRVDSFVLGNHNGIGVCFV: the amyloid nucleation score is -0.918 ± 0.41.

Substance FHAKRTINMNGATVQYGLYA returned an amyloid nucleation score of -0.354 ± 0.76.

LLSGEDQLMKYLKSKNSCLW gave an amyloid nucleation score of -0.67 ± 0.79.

Substance FLTLPVSPSTQFISDRGSAL had an amyloid nucleation score of 2.64 ± 0.13.

In turn, LHIKW came in with an amyloid nucleation score of 5.728 ± 0.033.

For YHRCMKGVRDFVKLVDDCML, the amyloid nucleation score was -1.09 ± 0.49.

Consider TLKYSVVNTLMTSMHDF, for which the amyloid nucleation score worked out at 3.56 ± 0.082.

AEGVSL had an amyloid nucleation score of -0.554 ± 1.

NLSFLEPLYWNEVSYFVRCC returned an amyloid nucleation score of 6.369 ± 0.023.

GGYICFQMFFYCVFARNY displayed an amyloid nucleation score of 1.27 ± 0.082.

For the substance LVLAASTFQYSGRGYASDML, the amyloid nucleation score amounted to 1.49 ± 0.29.

In the case of SCYLVVFPKIC, the amyloid nucleation score entry was “inactive”.
